# Results as given in PMC2703826.
# Biological target: C-terminal hydrophilic (cytoplasmic) domain of non-structural protein 4 from mouse hepatitis virus strain A59, wild type (mouse hepatitis virus strain A59)
# Assay: SEC; Superdex75, 50 mM Tris-Cl pH 8.5, 300 mM NaCl (legend: 150 mM NaCl), no reducing agent, 0.5 mL/min; calibrated with marker proteins
substance,measurement,value
"C-terminal hydrophilic (cytoplasmic) domain of non-structural protein 4 from mouse hepatitis virus strain A59, wild type (domain or fragment)",stoichiometry N,2
